Data: patent US20220042033A1, “COMPOSITION AND METHOD FOR CONFERRING AND/OR ENHANCING TOLERANCE AGAINST HERBICIDES BY USING VARIANTS OF PPO” (FarmHannong Co., Ltd., priority 2017, published 2022)

How the values were obtained:
MxPPO [1] = experiment: Herbicide tolerance test of MxPPO wild type and variants in PPO-deficient E. coli BT3(ΔPPO), growth on herbicide-containing LB agar; type: cell-based, Myxococcus xanthus; conditions: relative to MxPPO WT, light; for Herbicide tolerance, flumioxazin: up to 400 μM (FIGS. 15-17); for Herbicide tolerance, sulfentrazone: up to 1000 μM (FIGS. 18-20); for Herbicide tolerance, tiafenacil: 2000 μM (FIG. 14)
Experimental: Then, the extent of tolerance was evaluated.

MxPPO [2] = experiment: PPO enzyme activity of purified MBP-fused MxPPO wild type and variants; type: biochemical, Myxococcus xanthus; conditions: PPO enzyme activity of purified MxPPO protein, relative to wild type

B1: R95A + L332T + M365I: MxPPO (SEQ ID NO: 3) variant (protein)
chain: MHHMPRTTGMNVAVVGGGISGLAVAHHLRSRGTDAVLLESSARLGGAVGTHALAGYLVEQGPNSFLDREPATRALAAALNLEGRIRAADPAAKRAYVYTRGRLRSVPASPPAFLASDILPLGARLRVAGELFSRRAPEGVDESLAAFGRRHLGHRATQVLLDAVQTGIYAGDVEQLSVAATFPMLVKMEREHRSLILGAIRAQKAQRQAALPAGTAPKLSGALSTFDGGLQVLIDALAASLGDAAHVGARVEGLAREDGGWRLIIEEHGRRAELSVAQVVLAAPAHATAKLLRPLDDALAALVAGIAYAPIAVVHLGFDAGTLPAPDGFGFTVPAEEQRRMLGAIHASTTFPFRAEGGRVLYSCIVGGARQPGLVEQDEDALAALAREELKALAGVTARPSFTRVFRWPLGIPQYNLGHLERVAAIDAALQRLPGLHLIGNAYKGVGLNDCIRNAAQLADALVAGNTSHAP
modifications: Synthetic (Protoporphyrinogen IX oxidase (MxPPO) of Myxococcus xanthus)
Herbicide tolerance, flumioxazin (MxPPO [1]): + (1-9 fold higher tolerance) | Herbicide tolerance, sulfentrazone (MxPPO [1]): + (1-9 fold higher tolerance) | Activity (%) (MxPPO [2]): 38%

B2: I168C + M365I: MxPPO (SEQ ID NO: 3) variant (protein)
chain: MHHMPRTTGMNVAVVGGGISGLAVAHHLRSRGTDAVLLESSARLGGAVGTHALAGYLVEQGPNSFLDREPATRALAAALNLEGRIRAADPAAKRRYVYTRGRLRSVPASPPAFLASDILPLGARLRVAGELFSRRAPEGVDESLAAFGRRHLGHRATQVLLDAVQTGCYAGDVEQLSVAATFPMLVKMEREHRSLILGAIRAQKAQRQAALPAGTAPKLSGALSTFDGGLQVLIDALAASLGDAAHVGARVEGLAREDGGWRLIIEEHGRRAELSVAQVVLAAPAHATAKLLRPLDDALAALVAGIAYAPIAVVHLGFDAGTLPAPDGFGFLVPAEEQRRMLGAIHASTTFPFRAEGGRVLYSCIVGGARQPGLVEQDEDALAALAREELKALAGVTARPSFTRVFRWPLGIPQYNLGHLERVAAIDAALQRLPGLHLIGNAYKGVGLNDCIRNAAQLADALVAGNTSHAP
modifications: Synthetic (Protoporphyrinogen IX oxidase (MxPPO) of Myxococcus xanthus)
Herbicide tolerance, flumioxazin (MxPPO [1]): + (1-9 fold higher tolerance) | Herbicide tolerance, sulfentrazone (MxPPO [1]): + (1-9 fold higher tolerance) | Activity (%) (MxPPO [2]): 45%

B3: A170C + I311M + M365I: MxPPO (SEQ ID NO: 3) variant (protein)
chain: MHHMPRTTGMNVAVVGGGISGLAVAHHLRSRGTDAVLLESSARLGGAVGTHALAGYLVEQGPNSFLDREPATRALAAALNLEGRIRAADPAAKRRYVYTRGRLRSVPASPPAFLASDILPLGARLRVAGELFSRRAPEGVDESLAAFGRRHLGHRATQVLLDAVQTGIYCGDVEQLSVAATFPMLVKMEREHRSLILGAIRAQKAQRQAALPAGTAPKLSGALSTFDGGLQVLIDALAASLGDAAHVGARVEGLAREDGGWRLIIEEHGRRAELSVAQVVLAAPAHATAKLLRPLDDALAALVAGIAYAPMAVVHLGFDAGTLPAPDGFGFLVPAEEQRRMLGAIHASTTFPFRAEGGRVLYSCIVGGARQPGLVEQDEDALAALAREELKALAGVTARPSFTRVFRWPLGIPQYNLGHLERVAAIDAALQRLPGLHLIGNAYKGVGLNDCIRNAAQLADALVAGNTSHAP
modifications: Synthetic (Protoporphyrinogen IX oxidase (MxPPO) of Myxococcus xanthus)
Herbicide tolerance, flumioxazin (MxPPO [1]): ++ (10-99 fold higher tolerance) | Herbicide tolerance, sulfentrazone (MxPPO [1]): + (1-9 fold higher tolerance) | Activity (%) (MxPPO [2]): 69%

B4: I168C + M365V: MxPPO (SEQ ID NO: 3) variant (protein)
chain: MHHMPRTTGMNVAVVGGGISGLAVAHHLRSRGTDAVLLESSARLGGAVGTHALAGYLVEQGPNSFLDREPATRALAAALNLEGRIRAADPAAKRRYVYTRGRLRSVPASPPAFLASDILPLGARLRVAGELFSRRAPEGVDESLAAFGRRHLGHRATQVLLDAVQTGCYAGDVEQLSVAATFPMLVKMEREHRSLILGAIRAQKAQRQAALPAGTAPKLSGALSTFDGGLQVLIDALAASLGDAAHVGARVEGLAREDGGWRLIIEEHGRRAELSVAQVVLAAPAHATAKLLRPLDDALAALVAGIAYAPIAVVHLGFDAGTLPAPDGFGFLVPAEEQRRMLGAIHASTTFPFRAEGGRVLYSCVVGGARQPGLVEQDEDALAALAREELKALAGVTARPSFTRVFRWPLGIPQYNLGHLERVAAIDAALQRLPGLHLIGNAYKGVGLNDCIRNAAQLADALVAGNTSHAP
modifications: Synthetic (Protoporphyrinogen IX oxidase (MxPPO) of Myxococcus xanthus)
Herbicide tolerance, flumioxazin (MxPPO [1]): + (1-9 fold higher tolerance) | Herbicide tolerance, sulfentrazone (MxPPO [1]): + (1-9 fold higher tolerance) | Activity (%) (MxPPO [2]): 42%

B5: I168C + A170C + M365V: MxPPO (SEQ ID NO: 3) variant (protein)
chain: MHHMPRTTGMNVAVVGGGISGLAVAHHLRSRGTDAVLLESSARLGGAVGTHALAGYLVEQGPNSFLDREPATRALAAALNLEGRIRAADPAAKRRYVYTRGRLRSVPASPPAFLASDILPLGARLRVAGELFSRRAPEGVDESLAAFGRRHLGHRATQVLLDAVQTGCYCGDVEQLSVAATFPMLVKMEREHRSLILGAIRAQKAQRQAALPAGTAPKLSGALSTFDGGLQVLIDALAASLGDAAHVGARVEGLAREDGGWRLIIEEHGRRAELSVAQVVLAAPAHATAKLLRPLDDALAALVAGIAYAPIAVVHLGFDAGTLPAPDGFGFLVPAEEQRRMLGAIHASTTFPFRAEGGRVLYSCVVGGARQPGLVEQDEDALAALAREELKALAGVTARPSFTRVFRWPLGIPQYNLGHLERVAAIDAALQRLPGLHLIGNAYKGVGLNDCIRNAAQLADALVAGNTSHAP
modifications: Synthetic (Protoporphyrinogen IX oxidase (MxPPO) of Myxococcus xanthus)
Herbicide tolerance, flumioxazin (MxPPO [1]): ++ (10-99 fold higher tolerance) | Herbicide tolerance, sulfentrazone (MxPPO [1]): ++ (10-99 fold higher tolerance) | Activity (%) (MxPPO [2]): 45%

B6: I311M + L332T + M365V: MxPPO (SEQ ID NO: 3) variant (protein)
chain: MHHMPRTTGMNVAVVGGGISGLAVAHHLRSRGTDAVLLESSARLGGAVGTHALAGYLVEQGPNSFLDREPATRALAAALNLEGRIRAADPAAKRRYVYTRGRLRSVPASPPAFLASDILPLGARLRVAGELFSRRAPEGVDESLAAFGRRHLGHRATQVLLDAVQTGIYAGDVEQLSVAATFPMLVKMEREHRSLILGAIRAQKAQRQAALPAGTAPKLSGALSTFDGGLQVLIDALAASLGDAAHVGARVEGLAREDGGWRLIIEEHGRRAELSVAQVVLAAPAHATAKLLRPLDDALAALVAGIAYAPMAVVHLGFDAGTLPAPDGFGFTVPAEEQRRMLGAIHASTTFPFRAEGGRVLYSCVVGGARQPGLVEQDEDALAALAREELKALAGVTARPSFTRVFRWPLGIPQYNLGHLERVAAIDAALQRLPGLHLIGNAYKGVGLNDCIRNAAQLADALVAGNTSHAP
modifications: Synthetic (Protoporphyrinogen IX oxidase (MxPPO) of Myxococcus xanthus)
Herbicide tolerance, tiafenacil (MxPPO [1]): + (1-9 fold higher tolerance) | Herbicide tolerance, flumioxazin (MxPPO [1]): +++ (100-999 fold higher tolerance) | Herbicide tolerance, sulfentrazone (MxPPO [1]): ++ (10-99 fold higher tolerance) | Activity (%) (MxPPO [2]): 55%

B7: I168C + I311M + M365I: MxPPO (SEQ ID NO: 3) variant (protein)
chain: MHHMPRTTGMNVAVVGGGISGLAVAHHLRSRGTDAVLLESSARLGGAVGTHALAGYLVEQGPNSFLDREPATRALAAALNLEGRIRAADPAAKRRYVYTRGRLRSVPASPPAFLASDILPLGARLRVAGELFSRRAPEGVDESLAAFGRRHLGHRATQVLLDAVQTGCYAGDVEQLSVAATFPMLVKMEREHRSLILGAIRAQKAQRQAALPAGTAPKLSGALSTFDGGLQVLIDALAASLGDAAHVGARVEGLAREDGGWRLIIEEHGRRAELSVAQVVLAAPAHATAKLLRPLDDALAALVAGIAYAPMAVVHLGFDAGTLPAPDGFGFLVPAEEQRRMLGAIHASTTFPFRAEGGRVLYSCIVGGARQPGLVEQDEDALAALAREELKALAGVTARPSFTRVFRWPLGIPQYNLGHLERVAAIDAALQRLPGLHLIGNAYKGVGLNDCIRNAAQLADALVAGNTSHAP
modifications: Synthetic (Protoporphyrinogen IX oxidase (MxPPO) of Myxococcus xanthus)
Herbicide tolerance, tiafenacil (MxPPO [1]): + (1-9 fold higher tolerance) | Herbicide tolerance, flumioxazin (MxPPO [1]): ++ (10-99 fold higher tolerance) | Herbicide tolerance, sulfentrazone (MxPPO [1]): + (1-9 fold higher tolerance) | Activity (%) (MxPPO [2]): 47%

B8: I168C + L332T + M365V: MxPPO (SEQ ID NO: 3) variant (protein)
chain: MHHMPRTTGMNVAVVGGGISGLAVAHHLRSRGTDAVLLESSARLGGAVGTHALAGYLVEQGPNSFLDREPATRALAAALNLEGRIRAADPAAKRRYVYTRGRLRSVPASPPAFLASDILPLGARLRVAGELFSRRAPEGVDESLAAFGRRHLGHRATQVLLDAVQTGCYAGDVEQLSVAATFPMLVKMEREHRSLILGAIRAQKAQRQAALPAGTAPKLSGALSTFDGGLQVLIDALAASLGDAAHVGARVEGLAREDGGWRLIIEEHGRRAELSVAQVVLAAPAHATAKLLRPLDDALAALVAGIAYAPIAVVHLGFDAGTLPAPDGFGFTVPAEEQRRMLGAIHASTTFPFRAEGGRVLYSCVVGGARQPGLVEQDEDALAALAREELKALAGVTARPSFTRVFRWPLGIPQYNLGHLERVAAIDAALQRLPGLHLIGNAYKGVGLNDCIRNAAQLADALVAGNTSHAP
modifications: Synthetic (Protoporphyrinogen IX oxidase (MxPPO) of Myxococcus xanthus)
Herbicide tolerance, tiafenacil (MxPPO [1]): + (1-9 fold higher tolerance) | Herbicide tolerance, flumioxazin (MxPPO [1]): +++ (100-999 fold higher tolerance) | Herbicide tolerance, sulfentrazone (MxPPO [1]): ++ (10-99 fold higher tolerance) | Activity (%) (MxPPO [2]): 49%
